In PMC5552909, “The first description of a hormone‐sensitive lipase from a basidiomycete: Structural insights and biochemical characterization revealed Bjerkandera adusta BaEstB as a novel esterase” (MicrobiologyOpen, 2017):

B1: BaEstB (Bjerkandera adusta) (protein)
chain: MESIRLSNAAGTISNDILAQVTFANEAIYPLLEKRRAEIENVTRKTFRYGALPGSEMDVYYPSSTPSGKAPVLAFVHGGAYVHGSKTHPPPGDLIYKNVGAFYASQGFVTVIPDYRKLPGMKWPDAPSDIASALTFLVAHSSDVNASAPTAADVQNIFLVGHSAGGAIASDVLLAPGLLPANVRRSVRGLIVFGGMMHYRGLEYPIPPFVLPGYYGTDEDVRAHEPLGLLESASDEIVRGLPDVLMVLSEHDVAAMRAAVTDFRSALAERTGKDVPLLVAQGHNHISPHYALSSGEGEEWGHDVIRWMRAKLASGNGVPATE
notes: full-length ORF (969 nt, M1-E322) in pPICZalphaA with myc and poly-His tags; secreted from Pichia pastoris X-33; dimer by DLS; catalytic triad S163, D252, H285

Legend:
[1] = molecular target: Bjerkandera adusta BaEstB, Hormone-Sensitive Lipase (HSL) family esterase (Bjerkandera adusta); experiment: dynamic light scattering (DLS); purified BaEstB without substrate; 30°C; Malvern Zetasizer Nano ZSP; 12 scans of 10 s; hydrodynamic radius from the Stokes-Einstein equation assuming spherical geometry
[2] = molecular target: Bjerkandera adusta BaEstB, Hormone-Sensitive Lipase (HSL) family esterase (Bjerkandera adusta); experiment: dynamic light scattering (DLS); purified BaEstB in presence of the substrate 2-naphthyl acetate; same conditions, considering its optimum pH and temperature; 12 scans of 10 s
[3] = substrate: CC(=O)Oc1ccc2ccccc2c1; experiment: isothermal titration calorimetry, single injection, Michaelis-Menten fit; format: biochemical, Bjerkandera adusta; details: 30°C in methods, results state optimum pH and temperature (pH 7.0; 45°C)

Molecule | stoichiometry N [1] | stoichiometry N [2] | Km [3] [µM] | kcat [3]
Bjerkandera adusta BaEstB, Hormone-Sensitive Lipase (HSL) family esterase (enzyme) | 2 | 2 |  | 
B1 |  |  | 7.68 ± 0.62 | 5.31 × 10^3 ± 20 s^−1
